In patent US20020142429:

Tests used:
[1] = test system: peptides centered around the phosphorylation site of eEF-2
[2] = test system: T1, amidated 16'mer peptide RKKFGESEKTKTKEFL
T1 sequence: RKKFGESEKTKTKEFL

## recombinant eEF-2 kinase (as used in the peptide phosphorylation assay)
[1]
  phosphorylation assays: This strategy did not yield a peptide that was functional in phosphorylation assays (data not shown)
[2]
  phosphoacceptor activity: amidation of the peptide further stabilizes the α-helical structure, resulting in stronger phosphoacceptor activity
